Measurements published in the Human Domainome abundance scans (Beltran et al. 2025).
± gives the uncertainty stated by the source.

B1: Pituitary-specific positive transcription factor 1, residues 130 to 198; numbered along this chain, P28069 (parent)
chain: RELEKFANEFKVRRIKLGYTQTNVGEALAAVHGSEFSQTTICRFENLQLSFKNACKLKAILSKWLEEAE

Variants of: B1
Experiment: abundance fitness (aPCA) (normalised: wild type 0, dead -1); higher = more abundant; growth selection in yeast, the domain comes from the species named
Details: Homo sapiens

Variant	abundance fitness
RELEKFANEFKVRRIKLGYTQTNVGEALAAVHGSEFSQTTICRFENLQLSFKSACKLKAILSKWLEEAE	0.115 ± 0.057
RELEKFANEFKVRRIKLGYTQTNVGEALAAVHGSEFSQTTICRFENLQLSFKLACKLKAILSKWLEEAE	-0.001 ± 0.049
RELEKFANEFKVRRIKLGYTQTNVGEALAAVHGSEFSQTTICRRENLQLSFKNACKLKAILSKWLEEAE	-0.871 ± 0.14
RELEKFANEFKVRRIKLGYTQTNVGEALAAVHGSEFSQTTICRMENLQLSFKNACKLKAILSKWLEEAE	-0.89 ± 0.34
RELEKFANEFKVRRIKLGYTQTNVGEALAAVHGSEFSQTTICRIENLQLSFKNACKLKAILSKWLEEAE	-0.861 ± 0.18
RELEQFANEFKVRRIKLGYTQTNVGEALAAVHGSEFSQTTICRFENLQLSFKNACKLKAILSKWLEEAE	-0.172 ± 0.064
RELEFFANEFKVRRIKLGYTQTNVGEALAAVHGSEFSQTTICRFENLQLSFKNACKLKAILSKWLEEAE	-0.46 ± 0.14
RELEKFANEFKVRRIKLGYTQTNVGEALAAVHGSEFSQTTICRFENLQLSFKNACKLKAILSKLLEEAE	-0.795 ± 0.27
RELEKFANEFKVRRIKLGYTQTNVGEALAAVHGSEFSQTTICRFENLQLSFKNACKLKAILSKSLEEAE	-0.722 ± 0.2
RELEKFANEFKVRRIKLGYTQTNVGEALAAVHGSEFSQTTICRFENLQLSFKNACKLKAILSKALEEAE	-0.496 ± 0.18
RELEKFSNEFKVRRIKLGYTQTNVGEALAAVHGSEFSQTTICRFENLQLSFKNACKLKAILSKWLEEAE	-0.425 ± 0.19
RELEKFANEFKVRRCKLGYTQTNVGEALAAVHGSEFSQTTICRFENLQLSFKNACKLKAILSKWLEEAE	-0.327 ± 0.094
RELLKFANEFKVRRIKLGYTQTNVGEALAAVHGSEFSQTTICRFENLQLSFKNACKLKAILSKWLEEAE	-0.579 ± 0.11
RELEKFANEFKVRRIKLGYTQTNVGEALAAVHGSDFSQTTICRFENLQLSFKNACKLKAILSKWLEEAE	-0.144 ± 0.085
RELEKFANEFKVRRIKLGYTQTNVGEALAAVHGSNFSQTTICRFENLQLSFKNACKLKAILSKWLEEAE	-0.165 ± 0.13
RELEKFAVEFKVRRIKLGYTQTNVGEALAAVHGSEFSQTTICRFENLQLSFKNACKLKAILSKWLEEAE	-0.224 ± 0.12
RELEKFAIEFKVRRIKLGYTQTNVGEALAAVHGSEFSQTTICRFENLQLSFKNACKLKAILSKWLEEAE	0.024 ± 0.14
RELEKSANEFKVRRIKLGYTQTNVGEALAAVHGSEFSQTTICRFENLQLSFKNACKLKAILSKWLEEAE	-0.997 ± 0.13
RELEKFANEFKVRRIKLGYTQTNVGEALAAVHGSEFYQTTICRFENLQLSFKNACKLKAILSKWLEEAE	-0.508 ± 0.11
RELEKFANEFKVRRIKLGYTGTNVGEALAAVHGSEFSQTTICRFENLQLSFKNACKLKAILSKWLEEAE	-1.07 ± 0.19
RELEKFANEFKVRRIKLGYTQTNVGEALAAVHGSEFSQRTICRFENLQLSFKNACKLKAILSKWLEEAE	-0.096 ± 0.064
RELEKFANEFKVRRIKLGYTQTNVGEALAAVHGSEFSQVTICRFENLQLSFKNACKLKAILSKWLEEAE	-0.113 ± 0.059
RELEKFANEFKVRRIKLGYTQTNVGEALAAVHGSEFSQWTICRFENLQLSFKNACKLKAILSKWLEEAE	-0.393 ± 0.095
RELEKFANEFKVRRIKLGYTQTNVGEALAAVHGSEFSQTTICRFENLQQSFKNACKLKAILSKWLEEAE	-0.749 ± 0.19
RELEKFANEFKVRRIKLGYTQTNVGEALAAVHGSEFSQTTICRFENLQMSFKNACKLKAILSKWLEEAE	0.106 ± 0.084
RELEKFANEFKVRRIKLGYTQTNVGEALAAVHGSEFSQTTICRFENLQRSFKNACKLKAILSKWLEEAE	-0.862 ± 0.12

Variant	abundance fitness
RELEKFANEFKVRRIKLGYTQTNVGEALAAVHGSEFSQTTICRFENLQLSFKNACKLKAILSKWLQEAE	-0.193 ± 0.086
RHLEKFANEFKVRRIKLGYTQTNVGEALAAVHGSEFSQTTICRFENLQLSFKNACKLKAILSKWLEEAE	-0.968 ± 0.39
RELEKFANEFKVRRIKLGYTQTNVGEQLAAVHGSEFSQTTICRFENLQLSFKNACKLKAILSKWLEEAE	0.016 ± 0.093
RELEKFANEFKVRRIKLGYTQTNVGEALAAVHGSEFSQTTICRFENAQLSFKNACKLKAILSKWLEEAE	-0.204 ± 0.082
RELEKFANEFKVRRIKLGYTQTNVGEALAAVHGSEFSQTTICRFENYQLSFKNACKLKAILSKWLEEAE	-0.428 ± 0.094
RELEKFANEFKVRRIKLGYTQTNVGEALAAVHGSEFSQTTICRFENIQLSFKNACKLKAILSKWLEEAE	-0.866 ± 0.34
RELEKFANEFKVRRIKLGYTQTNVGEALAAVHGSEFSQTTICRFENLQLRFKNACKLKAILSKWLEEAE	-0.348 ± 0.059
RELEKFANEFKVRRIKLGYTQTNVGEALAAVHGSEFSQTTICRFENLQLLFKNACKLKAILSKWLEEAE	-0.57 ± 0.087
RELEKFANEFKVRRIKLCYTQTNVGEALAAVHGSEFSQTTICRFENLQLSFKNACKLKAILSKWLEEAE	-0.688 ± 0.23
RELEKFANEFKVRRIKLGYTQTNVGEALAAVHGSEFSQTTICRFENLQLSFKNANKLKAILSKWLEEAE	-0.201 ± 0.11
RELEKFANEFKVRRIKLGYTQTNVGEALAAVHGSEFSQTTICRFEDLQLSFKNACKLKAILSKWLEEAE	-0.112 ± 0.098
RELEKFANEFKVRRIKLGYTQTNVGEALAAVHGSEFSQTTICRFETLQLSFKNACKLKAILSKWLEEAE	-0.579 ± 0.12
RELEKFANEFKVRRIKLGYTQTNVGEALAAVHTSEFSQTTICRFENLQLSFKNACKLKAILSKWLEEAE	-0.892 ± 0.14
RELEKFANEFKVRRIKLGYTQTNVGEALAAVHLSEFSQTTICRFENLQLSFKNACKLKAILSKWLEEAE	-1.08 ± 0.12
RELEKFANEFKVRRIKLGYTQTNVGEALAAVHGSEFSQTTICRFENLQLSFKNACKLKAILSKWPEEAE	-0.752 ± 0.2
RELEKFANEFKVRRIKLGYTQTNVGEALAAVHGSEFSQTTICRFENLQLSFKNACKNKAILSKWLEEAE	-0.72 ± 0.12
RELEKFANEFKVRRIKTGYTQTNVGEALAAVHGSEFSQTTICRFENLQLSFKNACKLKAILSKWLEEAE	-0.941 ± 0.25
RELEKFANEFKVRRIKMGYTQTNVGEALAAVHGSEFSQTTICRFENLQLSFKNACKLKAILSKWLEEAE	-0.453 ± 0.096
RELEKFANEFKVRRIKGGYTQTNVGEALAAVHGSEFSQTTICRFENLQLSFKNACKLKAILSKWLEEAE	-0.889 ± 0.16
RELEKFANEFKVRRIKLGYTQTNVGEALAAVHGSEFSQTTICRFENLQLSFKNACKLKAILSTWLEEAE	0.022 ± 0.047
RELEKFANEFKVRRIKLGYTQTNVGEALAAVHGSEFSQTTICRFENLQLSFKNACKLKAILSCWLEEAE	-0.443 ± 0.098
RELEKFANEFKVRRIKLGYTQTNCGEALAAVHGSEFSQTTICRFENLQLSFKNACKLKAILSKWLEEAE	-0.337 ± 0.18
RELEKFANEFKVRRIKLGYTQTNRGEALAAVHGSEFSQTTICRFENLQLSFKNACKLKAILSKWLEEAE	-0.931 ± 0.23
RELEKFANEFKVRRIKLGYTQTNAGEALAAVHGSEFSQTTICRFENLQLSFKNACKLKAILSKWLEEAE	-0.728 ± 0.26
RELEKFANEFKVRRIKLGYTQTNVGEALSAVHGSEFSQTTICRFENLQLSFKNACKLKAILSKWLEEAE	-0.119 ± 0.069
RELEKFANEFKVRRIKLGYTQTNVGEALASVHGSEFSQTTICRFENLQLSFKNACKLKAILSKWLEEAE	-0.138 ± 0.058

Variant	abundance fitness
VELEKFANEFKVRRIKLGYTQTNVGEALAAVHGSEFSQTTICRFENLQLSFKNACKLKAILSKWLEEAE	-0.441 ± 0.14
RELEKFANEFKVRRIKLGYTQTHVGEALAAVHGSEFSQTTICRFENLQLSFKNACKLKAILSKWLEEAE	0 ± 0.077
RELEKFANEFKVRRIKLGYTQTNVGEALAAVHGSEFSQTTICRFENLQLSFLNACKLKAILSKWLEEAE	-0.369 ± 0.068
RELEKFANEFKVRRIKLGYTQTNVGEALAAVHGSEFSQTTICRFENLQLSFSNACKLKAILSKWLEEAE	-0.002 ± 0.076
RELEKFANEFKVRRIKLGYTQTNVGEALAAVHGSEFSQTTICRFENLQLSFCNACKLKAILSKWLEEAE	-0.753 ± 0.49
RELEKFANEFKVRRIKLGYTQTNVGEALAAVHGSEFSQTTICRFENLQLSFKNACKLKAIPSKWLEEAE	-0.728 ± 0.3
RELEKFANEFKVRRIKLGYTQTNVGEALAAVHGSEFSQTTICRFENLQLSFKNACKLKAIQSKWLEEAE	-0.78 ± 0.18
RELEKFANEFKVRRIKLGYTQTNVGEALAAVHGSEFSQTTVCRFENLQLSFKNACKLKAILSKWLEEAE	-0.523 ± 0.12
REWEKFANEFKVRRIKLGYTQTNVGEALAAVHGSEFSQTTICRFENLQLSFKNACKLKAILSKWLEEAE	-0.715 ± 0.16
RELEKFANEFKVRRIKLGYNQTNVGEALAAVHGSEFSQTTICRFENLQLSFKNACKLKAILSKWLEEAE	-0.384 ± 0.099
RELEKFANEFKVRRIKLGYQQTNVGEALAAVHGSEFSQTTICRFENLQLSFKNACKLKAILSKWLEEAE	-0.911 ± 0.2
RELEKFANEFKVRRIGLGYTQTNVGEALAAVHGSEFSQTTICRFENLQLSFKNACKLKAILSKWLEEAE	-0.559 ± 0.088
RELEKFANEFKVRRIKLGYTQTNVGEALAAVHGSEFSQTTICRFENLQLSFKNACKLKAILSKWLEHAE	-0.34 ± 0.23
RELEKFANEFKVRRIKLGYTQTNVGEALAAVHGSEFSQTTICRFENLQLSFKNACKLKAILSKWLEYAE	-0.36 ± 0.09
RELEKFANEFKVRRIKLGYTQTNVGEAIAAVHGSEFSQTTICRFENLQLSFKNACKLKAILSKWLEEAE	-0.276 ± 0.34
RELEKFANEFKVRRIKLGYTQTNVGEALAAVHGAEFSQTTICRFENLQLSFKNACKLKAILSKWLEEAE	-0.079 ± 0.11
RELEKFANEFKVRRIKLGYTQTNVGEALAAVHGYEFSQTTICRFENLQLSFKNACKLKAILSKWLEEAE	-0.373 ± 0.086
RELEKFANEFKVRRIKLGHTQTNVGEALAAVHGSEFSQTTICRFENLQLSFKNACKLKAILSKWLEEAE	-0.376 ± 0.38
RELEKFANEFKVRRIKLGSTQTNVGEALAAVHGSEFSQTTICRFENLQLSFKNACKLKAILSKWLEEAE	-0.696 ± 0.23
RELEKFANEFKVRRIKLGYTQTNVGEALAAVHGSEFSQTTINRFENLQLSFKNACKLKAILSKWLEEAE	0.092 ± 0.093
RELEKFANEFKVRRIKLGYTQTNVGEALAAVHGSEFSQTTIFRFENLQLSFKNACKLKAILSKWLEEAE	-0.348 ± 0.081
RELEKFANEFKVRRIKLGYTQTNVGEALAAVHGSEFSQTTICRFENLQLSFKNACKLKPILSKWLEEAE	0.381 ± 0.058
RELEKFANEFKVRRIKLGYTQTNVGEALAAVHGSEFSQTTICRFENLQLSFKNACKLKQILSKWLEEAE	-0.045 ± 0.064
RELEKFANEFKVRRIKLGYTQTNVGEALAAVHGSEFSQTTICRFENLQLSFKNACMLKAILSKWLEEAE	-0.268 ± 0.05
RELEKFANEFKVKRIKLGYTQTNVGEALAAVHGSEFSQTTICRFENLQLSFKNACKLKAILSKWLEEAE	-0.308 ± 0.13
RELEKFANEFKVQRIKLGYTQTNVGEALAAVHGSEFSQTTICRFENLQLSFKNACKLKAILSKWLEEAE	-0.193 ± 0.12
